Experimental data taken from paper PMC4760774.

Target: Dengue virus serotype 3 nonstructural protein 5 with a six-residue deletion in the priming loop (DENV3 NS5-Δ6) (dengue virus serotype 3 (DENV3))
Assay: crystal structure

## Dengue virus serotype 3 nonstructural protein 5 with a six-residue deletion in the priming loop (DENV3 NS5-Δ6) (enzyme)
  stoichiometry N: 2
